Assays:
[1] = target: human C-C chemokine receptor 2B (human) (UniProt P41597); assay: cell-based or functional assay
[2] = target: dog-human chimeric C-C chemokine receptor 2B (dog-human chimera (synthetic)); assay: cell-based or functional assay
Sequence of dog-human chimeric C-C chemokine receptor 2B (dog-human chimera (synthetic)) (chain, as listed by the source mutant limits assumed): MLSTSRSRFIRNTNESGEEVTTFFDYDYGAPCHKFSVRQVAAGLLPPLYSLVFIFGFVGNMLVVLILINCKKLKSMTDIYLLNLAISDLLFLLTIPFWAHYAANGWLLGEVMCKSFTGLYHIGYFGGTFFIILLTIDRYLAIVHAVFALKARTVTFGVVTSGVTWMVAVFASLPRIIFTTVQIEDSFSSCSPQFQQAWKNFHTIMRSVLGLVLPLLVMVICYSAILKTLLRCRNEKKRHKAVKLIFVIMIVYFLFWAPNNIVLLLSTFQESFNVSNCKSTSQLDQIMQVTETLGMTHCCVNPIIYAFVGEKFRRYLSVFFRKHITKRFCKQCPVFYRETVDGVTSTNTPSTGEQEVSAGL

Sequence of human C-C chemokine receptor 2B (human) (P41597 whole entry): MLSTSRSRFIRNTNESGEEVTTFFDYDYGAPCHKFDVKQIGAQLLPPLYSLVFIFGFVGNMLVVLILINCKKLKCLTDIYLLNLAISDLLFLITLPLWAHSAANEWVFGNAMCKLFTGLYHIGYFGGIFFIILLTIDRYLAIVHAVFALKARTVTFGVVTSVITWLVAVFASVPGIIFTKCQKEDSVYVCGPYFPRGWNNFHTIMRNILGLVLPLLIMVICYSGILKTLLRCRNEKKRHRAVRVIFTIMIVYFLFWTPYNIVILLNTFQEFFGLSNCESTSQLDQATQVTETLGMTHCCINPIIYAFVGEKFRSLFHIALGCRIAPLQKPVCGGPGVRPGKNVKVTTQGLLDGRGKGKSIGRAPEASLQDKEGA

| EC50 of calcium mobilization (FLIPR), THP-1 cells [1] | EC50 of MCP-1-dependent calcium mobilization (FLIPR), CHO-K1 cells expressing the chimeric receptor [2] | EC50 of MCP-1 signaling (calcium mobilization, FLIPR) in THP-1 cells [1] | calcium mobilization (FLIPR), THP-1 cells [1] | Substance |
| --- | --- | --- | --- | --- |
| 0.053 µM | – | – | – | canine monocyte chemoattractant protein-1 (from UniProt P52203 24-101) (ligand) |
| – | 0.0015 µM | 0.003 µM | 8 nM | human monocyte chemoattractant protein-1 (from UniProt P13500 24-99) (ligand) |
| 0.03 µM | – | – | – | mouse monocyte chemoattractant protein-1 (from UniProt P10148 24-148) (ligand) |
